The values below come from IntAct's records for PubMed 31515488.

B1: Intraflagellar transport protein 27 homolog (Homo sapiens), Q9BW83 (parent)
chain: MVKLAAKCILAGDPAVGKTALAQIFRSDGAHFQKSYTLTTGMDLVVKTVPVPDTGDSVELFIFDSAGKELFSEMLDKLWESPNVLCLVYDVTNEESFNNCSKWLEKARSQAPGISLPGVLVGNKTDLAGRRAVDSAEARAWALGQGLECFETSVKEMENFEAPFHCLAKQFHQLYREKVEVFRALA
partner: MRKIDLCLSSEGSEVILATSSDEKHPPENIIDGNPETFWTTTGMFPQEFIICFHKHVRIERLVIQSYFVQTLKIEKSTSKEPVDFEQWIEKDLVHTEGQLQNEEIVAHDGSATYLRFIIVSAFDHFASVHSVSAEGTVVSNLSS
B2: Dynein axonemal assembly factor 19 (Homo sapiens), Q8IW40 (parent)
chain: MERNDIINFKALEKELQAALTADEKYKRENAAKLRAVEQRVASYEEFRGIVLASHLKPLERKDKMGGKRTVPWNCHTIQGRTFQDVATEISPEKAPLQPETSADFYRDWRRHLPSGPERYQALLQLGGPRLGCLFQTDVGFGLLGELLVALADHVGPADRAAVLGILCSLASTGRFTLNLSLLSRAERESCKGLFQKLQAMGNPRSVKEGLSWEEQGLEEQSGGLQEEERLLQELLELYQVD
B3: Medium-chain acyl-CoA ligase ACSF2, mitochondrial (Homo sapiens), Q96CM8 (parent)
chain: MAVYVGMLRLGRLCAGSSGVLGARAALSRSWQEARLQGVRFLSSREVDRMVSTPIGGLSYVQGCTKKHLNSKTVGQCLETTAQRVPEREALVVLHEDVRLTFAQLKEEVDKAASGLLSIGLCKGDRLGMWGPNSYAWVLMQLATAQAGIILVSVNPAYQAMELEYVLKKVGCKALVFPKQFKTQQYYNVLKQICPEVENAQPGALKSQRLPDLTTVISVDAPLPGTLLLDEVVAAGSTRQHLDQLQYNQQFLSCHDPINIQFTSGTTGSPKGATLSHYNIVNNSNILGERLKLHEKTPEQLRMILPNPLYHCLGSVAGTMMCLMYGATLILASPIFNGKKALEAISRERGTFLYGTPTMFVDILNQPDFSSYDISTMCGGVIAGSPAPPELIRAIINKINMKDLVVAYGTTENSPVTFAHFPEDTVEQKAESVGRIMPHTEARIMNMEAGTLAKLNTPGELCIRGYCVMLGYWGEPQKTEEAVDQDKWYWTGDVATMNEQGFCKIVGRSKDMIIRGGENIYPAELEDFFHTHPKVQEVQVVGVKDDRMGEEICACIRLKDGEETTVEEIKAFCKGKISHFKIPKYIVFVTNYPLTISGKIQKFKLREQMERHLNL
B4: Cyclic AMP-dependent transcription factor ATF-4 (Homo sapiens), P18848 (parent)
chain: MTEMSFLSSEVLVGDLMSPFDQSGLGAEESLGLLDDYLEVAKHFKPHGFSSDKAKAGSSEWLAVDGLVSPSNNSKEDAFSGTDWMLEKMDLKEFDLDALLGIDDLETMPDDLLTTLDDTCDLFAPLVQETNKQPPQTVNPIGHLPESLTKPDQVAPFTFLQPLPLSPGVLSSTPDHSFSLELGSEVDITEGDRKPDYTAYVAMIPQCIKEEDTPSDNDSGICMSPESYLGSPQHSPSTRGSPNRSLPSPGVLCGSARPKPYDPPGEKMVAAKVKGEKLDKKLKKMEQNKTAATRYRQKKRAEQEALTGECKELEKKNEALKERADSLAKEIQYLKDLIEEVRKARGKKRVP
partner: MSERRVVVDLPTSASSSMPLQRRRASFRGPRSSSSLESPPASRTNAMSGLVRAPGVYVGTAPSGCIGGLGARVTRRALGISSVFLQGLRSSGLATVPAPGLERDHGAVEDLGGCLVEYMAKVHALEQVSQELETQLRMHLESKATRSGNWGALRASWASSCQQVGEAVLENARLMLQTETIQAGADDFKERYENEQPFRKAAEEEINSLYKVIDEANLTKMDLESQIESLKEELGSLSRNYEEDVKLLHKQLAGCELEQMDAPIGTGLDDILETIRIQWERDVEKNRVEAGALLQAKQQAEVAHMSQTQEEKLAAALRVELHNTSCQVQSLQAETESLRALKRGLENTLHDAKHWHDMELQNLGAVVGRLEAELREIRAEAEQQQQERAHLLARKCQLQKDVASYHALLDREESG

Variants of B1 are the subject of one experiment. As to conditions: with ift25_human IFT25, Q9Y547.
On to A142V, for which the “effect of a mutation on the interaction” value was “disrupting interaction strength”.

In a further experiment the parent is B2. The settings on record: with vac14_human VAC14, Q08AM6.
Sequence of vac14_human VAC14, Q08AM6 (Q08AM6 whole entry): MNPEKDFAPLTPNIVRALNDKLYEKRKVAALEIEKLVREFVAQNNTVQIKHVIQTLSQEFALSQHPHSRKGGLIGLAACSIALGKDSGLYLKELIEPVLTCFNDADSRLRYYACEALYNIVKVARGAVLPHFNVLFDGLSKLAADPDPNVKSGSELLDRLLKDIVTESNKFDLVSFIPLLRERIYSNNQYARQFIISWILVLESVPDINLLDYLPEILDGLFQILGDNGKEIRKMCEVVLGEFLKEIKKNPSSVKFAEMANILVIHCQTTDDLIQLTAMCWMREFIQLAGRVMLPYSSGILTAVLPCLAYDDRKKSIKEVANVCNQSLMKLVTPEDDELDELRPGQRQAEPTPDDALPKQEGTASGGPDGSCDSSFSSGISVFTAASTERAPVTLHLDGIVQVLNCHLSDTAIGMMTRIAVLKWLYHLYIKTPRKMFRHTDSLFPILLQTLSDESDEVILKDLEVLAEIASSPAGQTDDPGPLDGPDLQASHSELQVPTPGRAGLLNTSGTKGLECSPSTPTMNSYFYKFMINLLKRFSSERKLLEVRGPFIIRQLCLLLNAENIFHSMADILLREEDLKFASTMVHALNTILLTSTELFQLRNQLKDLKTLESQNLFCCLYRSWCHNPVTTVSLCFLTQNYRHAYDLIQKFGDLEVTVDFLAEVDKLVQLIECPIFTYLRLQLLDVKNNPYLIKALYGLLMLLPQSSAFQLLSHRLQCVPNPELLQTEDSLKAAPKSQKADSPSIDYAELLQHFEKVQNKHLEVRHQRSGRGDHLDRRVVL
For H154P, the “effect of a mutation on the interaction” value is given as “with no effect”.
As to H112N, the “effect of a mutation on the interaction” value is recorded as “with no effect”.

The next experiment covers variants of B2. The settings on record: with hgs_human HGS.
With K27R, the “effect of a mutation on the interaction” value is on record as “with no effect”.

In a further experiment the parent is B3. The settings on record: with atrap_human AGTRAP.
In the case of A34V, the “effect of a mutation on the interaction” value is listed as “disrupting interaction strength”.
Same read-out and setting: for G19W the value was “disrupting interaction strength”.

In another experiment the parent is B3. The settings on record: with ar6p1_human ARL6IP1, Q15041.
Sequence of ar6p1_human ARL6IP1, Q15041 (Q15041 whole entry): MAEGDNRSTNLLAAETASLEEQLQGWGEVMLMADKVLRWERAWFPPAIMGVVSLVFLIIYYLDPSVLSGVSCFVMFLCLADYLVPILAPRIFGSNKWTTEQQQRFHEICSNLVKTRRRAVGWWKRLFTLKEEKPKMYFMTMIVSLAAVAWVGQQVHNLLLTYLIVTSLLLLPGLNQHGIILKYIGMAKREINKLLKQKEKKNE
A34V: the “effect of a mutation on the interaction” value is “disrupting interaction strength”.
Still for that read-out and setting: then G19W, with “disrupting interaction strength”.

Variants of B4 are the subject of another experiment. As to conditions: with bfsp2_human BFSP2, Q13515.
For E322D, the “effect of a mutation on the interaction” value is given as “disrupting interaction strength”.
Take T137S: the “effect of a mutation on the interaction” value is “with no effect”.
Same read-out and setting: for P258A the value was “with no effect”; for A324V, “with no effect”.
